Measurements taken from US20230035659A1, “Compositions and Methods for TTR Gene Editing and Treating ATTR Amyloidosis Comprising a Corticosteroid or Use Thereof” (Intellia Therapeutics, Inc., priority 2019, published 2023).
Strand notation (5' to 3'): a small letter for the sugar, then the base; units joined by * are phosphorothioate-linked, units joined directly phosphodiester-linked; [ ] holds rarer units or linkages, { } end groups; capitals alone tell only the bases. m = 2'-O-methyl; r = 2'-OH (RNA)

B1: G000567: TTR sgRNA modified sequence, Human, SEQ ID NO: 109; guide sequence of CR003352 (nucleic acid)
guide: mG*mA*mA*rArGrGrCrUrGrCrUrGrArUrGrArCrArCrCrGrUrUrUrUrArGrAmGmCmUmAmGmAmAmAmUmAmGmCrArArGrUrUrArArArArUrArArGrGrCrUrArGrUrCrCrGrUrUrArUrCrAmAmCmUmUmGmAmAmAmAmAmGmUmGmGmCmAmCmCmGmAmGmUmCmGmGmUmGmCmU*mU*mU*mU
B2: G000502: TTR Cyno specific sgRNA modified sequence, SEQ ID NO: 114; guide sequence of CR000689; cross homologous between mouse and cyno (nucleic acid)
guide: mA*mC*mA*rCrArArArUrArCrCrArGrUrCrCrArGrCrGrGrUrUrUrUrArGrAmGmCmUmAmGmAmAmAmUmAmGmCrArArGrUrUrArArArArUrArArGrGrCrUrArGrUrCrCrGrUrUrArUrCrAmAmCmUmUmGmAmAmAmAmAmGmUmGmGmCmAmCmCmGmAmGmUmCmGmGmUmGmCmU*mU*mU*mU
B3: G000484: TTR sgRNA modified sequence, Human, SEQ ID NO: 91; guide sequence of CR003367 (nucleic acid)
guide: mA*mG*mA*rCrArCrCrArArArUrCrUrUrArCrUrGrGrArGrUrUrUrUrArGrAmGmCmUmAmGmAmAmAmUmAmGmCrArArGrUrUrArArArArUrArArGrGrCrUrArGrUrCrCrGrUrUrArUrCrAmAmCmUmUmGmAmAmAmAmAmGmUmGmGmCmAmCmCmGmAmGmUmCmGmGmUmGmCmU*mU*mU*mU
B4: G000481: TTR sgRNA modified sequence, Human, SEQ ID NO: 88; guide sequence of CR003345 (nucleic acid)
guide: UCUAGAACUUUGACCAUCAGGUUUUAGAGCUAGAAAUAGCAAGUUAAAAUAAGGCUAGUCCGUUAUCAACUUGAAAAAGUGGCACCGAGUCGGUGCUUUU
modifications: sugars from the 5' end m3 r25 m12 r28 m32, backbone not given here; further chemistry not fully specified
B5: G000572: TTR sgRNA modified sequence, Human, SEQ ID NO: 113; guide sequence of CR003385 (nucleic acid)
guide: mC*mC*mC*rCrUrArCrUrCrCrUrArUrUrCrCrArCrCrArGrUrUrUrUrArGrAmGmCmUmAmGmAmAmAmUmAmGmCrArArGrUrUrArArArArUrArArGrGrCrUrArGrUrCrCrGrUrUrArUrCrAmAmCmUmUmGmAmAmAmAmAmGmUmGmGmCmAmCmCmGmAmGmUmCmGmGmUmGmCmU*mU*mU*mU
B6: G000480: TTR sgRNA modified sequence, Human, SEQ ID NO: 87; guide sequence of CR003353 (nucleic acid)
guide: mA*mA*mA*rGrGrCrUrGrCrUrGrArUrGrArCrArCrCrUrGrUrUrUrUrArGrAmGmCmUmAmGmAmAmAmUmAmGmCrArArGrUrUrArArArArUrArArGrGrCrUrArGrUrCrCrGrUrUrArUrCrAmAmCmUmUmGmAmAmAmAmAmGmUmGmGmCmAmCmCmGmAmGmUmCmGmGmUmGmCmU*mU*mU*mU
B7: G000488: TTR sgRNA modified sequence, Human, SEQ ID NO: 95; guide sequence of CR003346 (nucleic acid)
guide: mA*mA*mA*rGrUrUrCrUrArGrArUrGrCrUrGrUrCrCrGrGrUrUrUrUrArGrAmGmCmUmAmGmAmAmAmUmAmGmCrArArGrUrUrArArArArUrArArGrGrCrUrArGrUrCrCrGrUrUrArUrCrAmAmCmUmUmGmAmAmAmAmAmGmUmGmGmCmAmCmCmGmAmGmUmCmGmGmUmGmCmU*mU*mU*mU
B8: G000483: TTR sgRNA modified sequence, Human, SEQ ID NO: 90; guide sequence of CR005298 (nucleic acid)
guide: mU*mC*mC*rArCrUrCrArUrUrCrUrUrGrGrCrArGrGrArGrUrUrUrUrArGrAmGmCmUmAmGmAmAmAmUmAmGmCrArArGrUrUrArArArArUrArArGrGrCrUrArGrUrCrCrGrUrUrArUrCrAmAmCmUmUmGmAmAmAmAmAmGmUmGmGmCmAmCmCmGmAmGmUmCmGmGmUmGmCmU*mU*mU*mU
B9: G000493: TTR sgRNA modified sequence, Human, SEQ ID NO: 100; guide sequence of CR003368 (nucleic acid)
guide: mA*mA*mG*rUrGrCrCrUrUrCrCrArGrUrArArGrArUrUrGrUrUrUrUrArGrAmGmCmUmAmGmAmAmAmUmAmGmCrArArGrUrUrArArArArUrArArGrGrCrUrArGrUrCrCrGrUrUrArUrCrAmAmCmUmUmGmAmAmAmAmAmGmUmGmGmCmAmCmCmGmAmGmUmCmGmGmUmGmCmU*mU*mU*mU
B10: G000490: TTR sgRNA modified sequence, Human, SEQ ID NO: 97; guide sequence of CR003366 (nucleic acid)
guide: mA*mA*mA*rUrArGrArCrArCrCrArArArUrCrUrUrArCrGrUrUrUrUrArGrAmGmCmUmAmGmAmAmAmUmAmGmCrArArGrUrUrArArArArUrArArGrGrCrUrArGrUrCrCrGrUrUrArUrCrAmAmCmUmUmGmAmAmAmAmAmGmUmGmGmCmAmCmCmGmAmGmUmCmGmGmUmGmCmU*mU*mU*mU
B11: G000489: TTR sgRNA modified sequence, Human, SEQ ID NO: 96; guide sequence of CR003344 (nucleic acid)
guide: mU*mU*mU*rGrArCrCrArUrCrArGrArGrGrArCrArCrUrGrUrUrUrUrArGrAmGmCmUmAmGmAmAmAmUmAmGmCrArArGrUrUrArArArArUrArArGrGrCrUrArGrUrCrCrGrUrUrArUrCrAmAmCmUmUmGmAmAmAmAmAmGmUmGmGmCmAmCmCmGmAmGmUmCmGmGmUmGmCmU*mU*mU*mU
B12: G000570: TTR sgRNA modified sequence, Human, SEQ ID NO: 111; guide sequence of CR003347 (nucleic acid)
guide: mC*mA*mU*rUrGrArUrGrGrCrArGrGrArCrUrGrCrCrUrGrUrUrUrUrArGrAmGmCmUmAmGmAmAmAmUmAmGmCrArArGrUrUrArArArArUrArArGrGrCrUrArGrUrCrCrGrUrUrArUrCrAmAmCmUmUmGmAmAmAmAmAmGmUmGmGmCmAmCmCmGmAmGmUmCmGmGmUmGmCmU*mU*mU*mU
B13: G000568: TTR sgRNA modified sequence, Human, SEQ ID NO: 110; guide sequence of CR003391 (nucleic acid)
guide: mG*mG*mC*rUrGrUrCrGrUrCrArCrCrArArUrCrCrCrArGrUrUrUrUrArGrAmGmCmUmAmGmAmAmAmUmAmGmCrArArGrUrUrArArArArUrArArGrGrCrUrArGrUrCrCrGrUrUrArUrCrAmAmCmUmUmGmAmAmAmAmAmGmUmGmGmCmAmCmCmGmAmGmUmCmGmGmUmGmCmU*mU*mU*mU
B14: G000500: TTR sgRNA modified sequence, Human, SEQ ID NO: 107; guide sequence of CR003337 (nucleic acid)
guide: mC*mC*mA*rGrUrCrCrArGrCrArArGrGrCrArGrArGrGrGrUrUrUrUrArGrAmGmCmUmAmGmAmAmAmUmAmGmCrArArGrUrUrArArArArUrArArGrGrCrUrArGrUrCrCrGrUrUrArUrCrAmAmCmUmUmGmAmAmAmAmAmGmUmGmGmCmAmCmCmGmAmGmUmCmGmGmUmGmCmU*mU*mU*mU
B15: G000486: TTR sgRNA modified sequence, Human, SEQ ID NO: 93; guide sequence of CR003339 (nucleic acid)
guide: mA*mC*mA*rCrArArArUrArCrCrArGrUrCrCrArGrCrArGrUrUrUrUrArGrAmGmCmUmAmGmAmAmAmUmAmGmCrArArGrUrUrArArArArUrArArGrGrCrUrArGrUrCrCrGrUrUrArUrCrAmAmCmUmUmGmAmAmAmAmAmGmUmGmGmCmAmCmCmGmAmGmUmCmGmGmUmGmCmU*mU*mU*mU
B16: G000482: TTR sgRNA modified sequence, Human, SEQ ID NO: 89; guide sequence of CR003365 (nucleic acid)
guide: mU*mG*mU*rArGrArArGrGrGrArUrArUrArCrArArArGrGrUrUrUrUrArGrAmGmCmUmAmGmAmAmAmUmAmGmCrArArGrUrUrArArArArUrArArGrGrCrUrArGrUrCrCrGrUrUrArUrCrAmAmCmUmUmGmAmAmAmAmAmGmUmGmGmCmAmCmCmGmAmGmUmCmGmGmUmGmCmU*mU*mU*mU

System: TTR mRNA
Experiment: TTR mRNA knockdown (quantitative PCR) in primary human hepatocytes treated with LNPs
Assay type: cell-based
Conditions: PHH, gRNA:mRNA 1:2, 96 h, vs untreated control
Protocol: In one experiment, PHH were cultured and treated with LNPs comprising Cas9 mRNA (SEQ ID NO:1) and a gRNA of interest (See FIG. 29, Table 36), as described in Example 4. The LNPs were prepared using the cross-flow procedure described above and purified and concentrated using PD-10 columns and Amicon centrifugal filter units, respectively. The LNPs were formulated with an N:P ratio of 6.0 and contained Lipid A, Cholesterol, DSPC, and PEG2k-DMG in a 50:38:9:2 molar ratio, respectively. The LNPs comprised a gRNA:mRNA ratio of 1:2, and the cells were treated at a dose of 300 ng (with respect to the amount of mRNA cargo delivered).
(§1) Ninety-six (96) hours following LNP treatment (with biological triplicates for each condition), mRNA was purified from PHH cells using the Dynabeads mRNA DIRECT Kit (ThermoFisher Scientific) according to the manufacturer's protocol. Reverse Transcription (RT) was performed with Maxima reverse transcriptase (ThermoFisher Scientific) and a poly-dT primer. The resulting cDNA was purified with Ampure XP Beads (Agencourt). For Quantitative PCR, 2% of the purified cDNA was amplified with Taqman Fast Advanced Mastermix and 3 Taqman probe sets, TTR (Assay ID: Hs00174914_m1), GAPDH (Assay ID: Hs02786624_g1), and PPIB (Assay ID: Hs00168719_m1). The assays were run on the QuantStudio 7 Flex Real Time PCR System according to the manufacturer's instructions (Life Technologies). Relative expression of TTR mRNA was calculated by normalizing to the endogenous controls (GAPDH and PPIB) individually, and then averaged.
The groups in FIG. 29 and Table 36 are identified by the gRNA ID used in each LNP preparation.
In a separate experiment, TTR mRNA knockdown was evaluated following treatment with LNPs comprising G000480, G000486, and G000502. The LNPs were formulated and PHH were cultured and treated with the LNPs, each as described in the experiment above in this Example with the exception that the cells were treated at a dose of 100 ng (with respect to the amount of mRNA cargo delivered).
as §1, with “(single treatment” for “(with biological triplicates”, “the High Capacity cDNA Reverse Transcription Kit” for “Maxima reverse transcriptase”, “according to the manufacturer's instructions.” for “and a poly-dT primer. The resulting cDNA was purified with Ampure XP Beads (Agencourt).”, “the” for “the purified”
The groups in FIG. 30 and Table 37 are identified by the gRNA ID used in each LNP preparation.

[1] = LNP dose 300 ng mRNA cargo, biological triplicates
[2] = LNP dose 100 ng mRNA cargo, single treatment

Molecule	Avg % Knockdown (TTR mRNA) [1] [%]	Avg % Knockdown (TTR mRNA) [2] [%]
B1	90.89	–
B2	–	90.94
B3	75.22	–
B4	91.39	–
B5	55.92	–
B6	95.19	95.61
B7	92.77	–
B8	68.78	–
B9	87.53	–
B10	78.34	–
B11	91.85	–
B12	93.38	–
B13	53.44	–
B14	92.90	–
B15	–	97.36
B16	82.31	–
